# Assay results from patent US20150361138A1 (INSTITUT NATIONAL DE LA RECHERCHE AGRONOMIQUE, published 2015).
# *1 amine or outer side, *2 acyl side, *3 side chain or, on linkers, in order; H or OH if unused. Side-chain parts run from the residue outwards. [ ]: non-standard residue; d: D form. The star is where a group is joined. TTDS = 1,13-diamino-4,7,10-trioxatridecan-succinic acid spacer arm, O=C(CCC(=O)[*:2])NCCCOCCOCCOCCCN[*:1]; PEG5000 = COCH2CH2NH(CH2CH2O)nMe, about 5000 g/mol; γGlu = O=C(O)[C@H](CCC(=O)[*:2])N[*:1]; Arg(Me) = CNC(=N)NCCC[C@H](N)C(=O)O; Palmitoyl = CCCCCCCCCCCCCCCC(=O)*
# B1: peptide compound C5, Ac-Tyr-Asn-Trp-Asn-Ser-PheΨ[Tz]GlyΨ[Tz]Leu-Arg-Tyr-NH2 (peptide)
# peptide: Ac-YNWNSFGLRY-NH2
# modifications: also: Phe6-Gly7 and Gly7-Leu8 peptide bonds replaced by 1,4-disubstituted 1,2,3-triazoles
# Biological target: T1, human KISS1R receptor (human, UniProt Q969F8 1-398)
# T1 sequence (Q969F8 whole entry): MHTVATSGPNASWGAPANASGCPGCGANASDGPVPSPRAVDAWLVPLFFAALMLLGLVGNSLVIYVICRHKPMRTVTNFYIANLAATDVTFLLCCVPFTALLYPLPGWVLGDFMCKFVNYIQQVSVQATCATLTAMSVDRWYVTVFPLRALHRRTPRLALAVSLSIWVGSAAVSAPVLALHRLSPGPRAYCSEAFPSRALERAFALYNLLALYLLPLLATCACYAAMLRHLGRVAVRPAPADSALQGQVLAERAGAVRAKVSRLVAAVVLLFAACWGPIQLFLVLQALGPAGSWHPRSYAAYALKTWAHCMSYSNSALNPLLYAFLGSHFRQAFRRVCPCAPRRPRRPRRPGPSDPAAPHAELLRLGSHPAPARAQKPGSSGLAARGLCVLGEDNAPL
# Test: cell-based or functional assay
row,Molecule,"EC50 (nM), intracellular calcium mobilization of cells expressing human KISS1R"
1,"Ac-YNWNSFGLRY-NH2 [peptide compound Comp.3, Ac-Tyr-Asn-Trp-Asn-Ser-Phe-Gly-Leu-Arg-Tyr-NH2]",0.1 nM
2,"H-YNWNSFGLRY-NH2 (also: Gly7-Leu8 peptide bond replaced by 1,4-disubstituted 1,2,3-triazole) [peptide compound C1, H-Tyr-Asn-Trp-Asn-Ser-Phe-GlyΨ[Tz]Leu-Arg-Tyr-NH2]",0.5 nM
3,B1,44 nM
4,"Ac-YNWNSFGLRY-NH2 (also: Gly7-Leu8 peptide bond replaced by 1,4-disubstituted 1,2,3-triazole) [peptide compound C2, Ac-Tyr-Asn-Trp-Asn-Ser-Phe-GlyΨ[Tz]Leu-Arg-Tyr-NH2]",0.029 nM
5,"H-YNWNSFGLRY-NH2 [comparative peptide compound Comp.1 (mKP10), H-Tyr-Asn-Trp-Asn-Ser-Phe-Gly-Leu-Arg-Tyr-NH2]",2.9 nM
6,"Ac-YNK(Ac)NSFGL[Arg(Me)]Y-NH2 (also: Gly7-Leu8 peptide bond replaced by 1,4-disubstituted 1,2,3-triazole) [peptide compound C4, Ac-Tyr-Asn-Lys(Ac)-Asn-Ser-Phe-GlyΨ[Tz]Leu-Arg(Me)-Tyr-NH2]",0.011 nM
7,"Ac-YNWNSFGL[Arg(Me)]Y-NH2 (also: Gly7-Leu8 peptide bond replaced by 1,4-disubstituted 1,2,3-triazole) [peptide compound C3, Ac-Tyr-Asn-Trp-Asn-Ser-Phe-GlyΨ[Tz]Leu-Arg(Me)-Tyr-NH2]",0.014 nM

# Biological target: T1, human KISS1R receptor
# Test: cell-based or functional assay
# Remark: another data set of the same source
row,Molecule,"EC50 (nM), intracellular calcium mobilization of cells expressing human KISS1R"
1,"Ac-YK(PEG5000)WNSFGLRY-NH2 (also: Gly7-Leu8 peptide bond replaced by 1,4-disubstituted 1,2,3-triazole) [peptide compound C16, Ac-Tyr-Lys(PEG5000)-Trp-Asn-Ser-Phe-GlyΨ[Tz]Leu-Arg-Tyr-NH2]",4.17 nM
2,"Ac-YK(2‑(succinamido)‑6‑(4-(4-iodophenyl)butanamido)hexanoate)WNSFGLRY-NH2 (also: Gly7-Leu8 peptide bond replaced by 1,4-disubstituted 1,2,3-triazole)",0.001 nM
3,"{Palmitoyl-γGlu}-YNWNSFGL[Arg(Me)]Y-NH2 (also: Gly7-Leu8 peptide bond replaced by 1,4-disubstituted 1,2,3-triazole) [peptide compound C12, γ-(N-hexadecanoyl-Glu-OH)Tyr-Asn-Trp-Asn-Ser-Phe-GlyΨ[Tz]Leu-Arg(Me)-Tyr-NH2]",< 0.001 nM
4,"{Palmitoyl-γGlu}-YNWNSFGLRY-NH2 (also: Gly7-Leu8 peptide bond replaced by 1,4-disubstituted 1,2,3-triazole) [peptide compound C9, γ-(N-hexadecanoyl-Glu-OH)-Tyr-Asn-Trp-Asn-Ser-Phe-GlyΨ[Tz]Leu-Arg-Tyr-NH2]",< 0.001 nM
5,"Ac-YNK([γGlu-Palmitoyl])NSFGLRY-NH2 (also: Gly7-Leu8 peptide bond replaced by 1,4-disubstituted 1,2,3-triazole) [peptide compound C11, Ac-Tyr-Asn-Lys(γ-(N-hexadecanoyl-Glu-OH))-Asn-Ser-Phe-GlyΨ[Tz]Leu-Arg-Tyr-NH2]",90 nM
6,"Ac-YK([γGlu-Palmitoyl])WNSFGLRY-NH2 (also: Gly7-Leu8 peptide bond replaced by 1,4-disubstituted 1,2,3-triazole) [peptide compound C8, Ac-Tyr-Lys(γ-(N-hexadecanoyl-Glu-OH))-Trp-Asn-Ser-Phe-GlyΨ[Tz]Leu-Arg-Tyr-NH2]",1.38 nM
7,"Ac-YK([TTDS-γGlu-Palmitoyl])WNSFGLRY-NH2 (also: Gly7-Leu8 peptide bond replaced by 1,4-disubstituted 1,2,3-triazole)",0.079 nM

# Biological target: T1, human KISS1R receptor
# Test: cell-based or functional assay
# Remark: another data set of the same source
row,Molecule,"EC50 (nM), intracellular calcium mobilization of cells expressing human KISS1R"
1,"peptide compound C6, Ac-DTyr-DTrp-Asn-Thr-Phe-GlyΨ[Tz]Leu-Arg(Me)-Trp-NH2",0.01 nM
2,"peptide compound C7, Ac-DTyr-Hyp-Asn-Thr-Phe-GlyΨ[Tz]Leu-Arg(Me)-Trp-NH2",0.014 nM
